Assay [1] addresses Munc13L with C-terminal Halo tag (Munc13-1 residues 529-1735, C1-C2B-MUN-C2C domains, residues 1408-1452 replaced by EF) (UniProt Q62768). Nature of the assay: two-colour step-bleaching of co-clusters on a supported lipid bilayer.
Assay [2] has the same target. The assay can be described thus: two-colour TIRF co-localisation on a supported lipid bilayer.

On to “single-cysteine (S28C) version of SNAP25^WT labeled with AlexaFluor555 (from UniProt P60879 1-206) (natural protein)”, for which, in assay [1], the stoichiometry N (mole SNAP25/mole Munc13L) was determined as 0.8. In assay [2], this substance came in with a Manders' coefficient (SNAP25:Munc13L) at 50 nM Munc13L of 0.2, a Manders' coefficient (SNAP25:Munc13L) at 1 μM Munc13L of 0.6 and a Manders' coefficient at 1 μM Munc13L of 0.7.
